The results in this text go back to US20130137856A1, “PROTEIN BINDING DOMAINS STABILIZING FUNCTIONAL CONFORMATIONAL STATES OF GPCRS AND USES THEREOF” (priority 2010, published 2013).

One series has as its system β2AR-T4L. The series can be described thus: [3H]-DHA competition binding on β2AR-T4L reconstituted in HDL particles. Set-up: species or system human.
For series [1], the target named is T1, β2AR (Homo sapiens, UniProt P07550). The experiment in a line: Competition radioligand binding on commercial insect cell membranes with full-length human β2AR, Nb80 versus irrelevant Nb. As to conditions: radioligand displacement with Nb80 versus irrelevant Nanobody. Background: In a radioligand displacement assay an active substance lowers the binding of a labelled ligand.

In series [2] the test system is β2AR. The series can be described thus: Size exclusion chromatography of nanobody with purified detergent-solubilized β2AR. It is filed as binding, human. As to conditions: 20 μM β2AR bound to an agonist, 40 μM nanobody. Here is the method:
The mixture was then analyzed by Size Exclusion Chromatography (SEC), which separates protein on the basis of size. Seven of the nanobodies bound to purified β2AR and migrated as a complex on SEC only in the presence of agonist and not an inverse agonist (an example is shown in FIG. 1, Panel a, FIG. 3 and FIG. 4).
Agonist selective nanobodies were identified by size exclusion chromatography following incubation of 20 μM agonist or inverse agonist- (carazolol-) bound β2AR-365N for one hour at RT in the absence or presence of 40 μM nanobody.
In general terms: In gel filtration, larger molecules generally elute earlier.

For series [3], the target named is T1, β2AR. The experiment in a line: Monobromobimane (mBBr) fluorescence of labeled purified β2AR. It is filed as biochemical. The text has this: To investigate the effect of nanobodies on movement of the cytoplasmic domain of TM6 we labeled purified β2AR at C265 with monobromobimane (mBB-β2AR). […] In mBB-β2AR, the addition of agonist together with G protein results in larger fluorescent changes than either agonist or G protein alone. This is compatible with the cooperative interactions observed in agonist competition binding assays (Yao et al. 2009).
Purified β2AR was reacted with 1:1 equivalent of monobromobimane (mBBr, Invitrogen) in 100 mM NaCl, 20 mM HEPES, pH 7.5, 0.1% dodecyl maltoside and incubated overnight on ice in the dark. The fluorophore-labeled receptor was purified right before use by gel filtration on a desalting column equilibrated with the same buffer. […] All experiments were performed at 25° C. […] To determine the effect of nanobodies and ligands, three individual labeled protein samples were incubated with 1 μM nanobody or 10 μM Isoproterenol or both. Emission spectra of the samples were taken after 1 hour incubation.

Series [4] concerns the target T1, β2AR. The series can be described thus: Fluorescent (CPM) thermal stability assay of detergent-solubilized β2AR. The method, then: (§1) The effect of conformational selective nanobodies on the thermostability and the subsequent aggregation of the β2AR receptor was analyzed using a fluorescent thermal stability assay (FIG. 13) and size exclusion chromatography (FIG. 14).
The fluorescent thermal stability assay makes use of the thiol-specific fluorochrome N-[4-(7-diethylamino-4-methyl-3-coumarinyl)phenyl]maleimide (CPM) to measure the chemical reactivity of the native cysteines embedded in the protein interior as a sensor for the overall integrity of the folder state of membrane proteins (Alexandrov et al. 2008). For the fluorescent thermal stability assay, detergent-solubilized receptor (in 0.1% dodecylmaltoside, 100 mM NaCl and 20 mM Hepes pH 7.5) was pre-incubated with isoproterenol (10 μM) in the presence or absence of a 2:1 molar excess of Nb80 for one hour at RT. Samples were then mixed with CPM fluorophore and incubated for two minutes at temperatures ranging from 10° C. to 94° C. and fluorescence emission was collected. […] Unfolding transitions could be described by a simple two-state model, including the native (folded) and the denaturated state, representing the lower and upper plateaus of the melting curves.

Series [5] addresses T1, β2AR. The series can be described thus: Temperature-induced aggregation of β2AR analyzed by SEC. As to conditions: DDM-solubilized β2AR, 10 μM isoproterenol, 2:1 molar excess of Nb80, 10 minutes at increasing temperatures. Here is the method: as §1
We also analyzed the effect of Nb80 on the thermal unfolding and aggregation of the agonist-bound receptor by size exclusion chromatography (SEC). For this experiment, dodecylmaltoside-solubilized receptor was pre-incubated with isoproterenol (10 μM) in the presence or absence of a 2:1 molar excess of Nb80 for 45 minutes at RT. Samples were next incubated for 10 minutes at increasing temperatures and subsequently analyzed by SEC (FIG. 14).

The next series concerns the target human β1AR (Homo sapiens, UniProt P08588). The experiment in a line: [3H]-DHA competition binding on β1AR with and without Nb80. The text has this:
Active state stabilizing Nanobodies that are cross-reactive to related receptors can be used as a tool to stabilize a conformational state of those related receptors. […] Using the PISA server (Krissinel & Henrick, 2007) and based on the crystal structure of the Nb80-β2AR complex, 30 β2AR AA residues were identified to interact with Nb80 in the β2AR-Nb80 interface. […] The remaining interface residues are lysines in β2AR and have been substituted by arginines in β1AR corresponding to conserved substitutions (shown in grey boxes in FIG. 17). It thus appears that both receptors share a very similar binding site for Nb80. Based on this analysis, we also measured the effect of Nb80 on the affinity of […] for the agonist isoproterenol and the inverse agonist CGP20712A (FIG. 18).

A short description of series [6]: Effect of Nb80 on ligand affinity of an unrelated receptor. As to conditions: data not shown. It is filed as binding.
For series [7], the target named is T1, β2AR. The experiment in a line: Bimane fluorescence spectroscopy on mBB-β2AR reconstituted in HDL particles. As to conditions: Nb80 with 10 μM isoproterenol.
The target in series [8] is T1, β2AR. The experiment in a line: [3H]-DHA competition binding on Sf9 insect cell membranes expressing β2AR, with or without nanobody. Set-up: recombinant β2AR truncated at Gly365 (β2AR-365); made in house; host or cells: Sf9 insect cells (membranes). As to conditions: agonist competition binding with versus without nanobody. An excerpt:
Panel b: Dose-response competition binding experiments on Sf9 insect cell membranes expressing β2AR.

Series [9] deals with T1, β2AR. The experiment in a line: [3H]-DHA competition binding on β2AR reconstituted in HDL particles. Set-up: recombinant β2AR truncated at Gly365 (β2AR-365); made in house; host or cells: Sf9 insect cells (membranes).

“Also recorded” adds a separate entry of the source.

Sequence of human β1AR (P08588 whole entry): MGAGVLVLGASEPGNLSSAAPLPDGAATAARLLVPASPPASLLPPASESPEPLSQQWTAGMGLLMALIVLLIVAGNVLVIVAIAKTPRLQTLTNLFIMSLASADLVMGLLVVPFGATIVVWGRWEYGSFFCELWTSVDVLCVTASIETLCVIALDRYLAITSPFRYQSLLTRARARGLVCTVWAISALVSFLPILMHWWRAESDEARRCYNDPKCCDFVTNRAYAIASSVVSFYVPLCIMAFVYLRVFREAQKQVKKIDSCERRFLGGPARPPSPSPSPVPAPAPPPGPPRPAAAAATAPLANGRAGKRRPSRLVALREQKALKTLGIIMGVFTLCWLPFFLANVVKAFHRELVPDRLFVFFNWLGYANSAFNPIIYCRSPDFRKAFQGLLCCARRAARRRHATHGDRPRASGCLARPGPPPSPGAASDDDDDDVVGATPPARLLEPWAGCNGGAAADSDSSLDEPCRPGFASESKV

B1: NB80: β2AR-specific nanobody, SEQ ID NO:4; lead nanobody stabilizing the active state (protein, listed as Lama glama)
VHH: QVQLQESGGGLVQAGGSLRLSCAASGSIFSINTMGWYRQAPGKQRELVAAIHSGGSTNYANSVKGRFTISRDNAANTVYLQMNSLKPEDTAVYYCNVKDYGAVLYEYDYWGQGTQVTVSS
For the molecule B1, the “Increase of isoproterenol affinity in the presence of Nb80” value in the series with β2AR-T4L (β2AR-T4L/HDL with Nb80 versus without) is listed as 60 fold; with β2AR [9] (β2AR/HDL with Nb80 versus without), 95 fold. The “Effect of Nb80 on affinity for the inverse agonist ICI-118,551” value in the series with β2AR-T4L (β2AR-T4L/HDL, ICI-118,551 competing against [3H]-DHA) was “does not increase the affinity”; with β2AR [9] (β2AR/HDL, ICI-118,551 competing against [3H]-DHA) it was “does not increase the affinity; also recorded: little effect”. Further, the “Effect of Nb80 on β2AR affinity for agonists and antagonists” value in the series with β2AR [1] is “increases β2AR affinity for agonists but not for antagonists”. In the series with β2AR [2], the “Complex formation with agonist-bound β2AR on SEC” value is “β2AR-agonist-Nb80 complex formation”. Besides, in the series with β2AR [3] (1 μM nanobody plus full agonist isoproterenol), the “mBBr fluorescence change of isoproterenol-bound β2AR with nanobody (active state)” value was “larger changes were observed when both agonist and nanobody were added together; also recorded: stabilizes a more active state”. In addition, the “mBBr fluorescence change of β2AR with nanobody alone” value with β2AR [3] (Nb80 alone, no agonist) is on record as “relatively small changes in fluorescence”. Moreover, the “Apparent melting temperature for β2AR with Nb80” value in the series with β2AR [4] (DDM-solubilized, isoproterenol-bound β2AR, 2:1 molar excess of Nb80) was 24 °C. Also, the “Increase of the melting temperature (Tm) of the agonist-bound receptor” value in the series with β2AR [4] (isoproterenol (10 μM)-bound β2AR with versus without Nb80) worked out at 12 °C. In addition, the “Effect on temperature-induced aggregation of the agonist-bound receptor” value in the series with β2AR [5] is “protects the agonist-bound receptor against temperature-induced aggregation”. Besides, the “Conformational selectivity of Nb80 binding to human β1AR” value with human β1AR is on record as “selectively binds the active conformation”. Moreover, in the series with human β1AR ([3H]-DHA competition), the “Effect of Nb80 on affinity of the agonist isoproterenol for β1AR” value is listed as “increased affinity”. The “Effect of Nb80 on β1AR affinity for CGP20712A” value with human β1AR ([3H]-DHA competition) was “does not change the affinity”. The “Effect of Nb80 on unrelated receptors” value in series [6] is “No such effect”. In addition, the “Effect on bimane fluorescence in the presence of isoproterenol” value with β2AR [7] is “increased”. The “Enhancement of β2AR affinity for the agonist isoproterenol in the presence of the nanobody” value with β2AR [8] is on record as “two- to thirty-fold”.
